{"source": "paper PMC7412812", "about": "“The RNA-binding protein SERBP1 functions as a novel oncogenic factor in glioblastoma by bridging cancer metabolism and epigenetic regulation”", "molecular_target": "T1, SERBP1 (human, UniProt Q8NC51 1-408)", "T1 sequence": "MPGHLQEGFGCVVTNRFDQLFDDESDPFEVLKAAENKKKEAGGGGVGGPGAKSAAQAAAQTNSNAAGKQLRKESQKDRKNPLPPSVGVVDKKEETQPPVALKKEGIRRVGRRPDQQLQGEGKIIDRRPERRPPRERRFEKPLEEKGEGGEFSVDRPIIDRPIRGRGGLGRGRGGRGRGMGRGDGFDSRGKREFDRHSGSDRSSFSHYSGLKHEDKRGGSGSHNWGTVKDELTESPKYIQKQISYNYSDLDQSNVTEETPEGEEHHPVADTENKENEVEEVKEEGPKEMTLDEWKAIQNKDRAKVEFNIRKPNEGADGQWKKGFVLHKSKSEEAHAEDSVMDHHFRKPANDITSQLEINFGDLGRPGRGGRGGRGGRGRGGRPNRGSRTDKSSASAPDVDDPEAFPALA", "assay": "fluorescence polarization; 5 nM RNA, 0-1000 nM protein; FP: 10 mM HEPES pH 7.5, 50 mM KCl, room temperature", "conditions": "protein: recombinant; tags: N-terminal His6, proteolytically removed (Methods; Results call it an N-terminus His6 fusion); label: 5'-fluorescein; single strand", "data": [{"binder": "GCGCGGG (ssRNA)", "note": "[SERBP1 RNA 7-mer]", "values": [{"measurement": "Kd", "result": "~47", "unit": "nM"}]}]}
